assay: soluble on expression in E. coli; label from the status in PepcDB or PDB records

Sequence | soluble on expression in E. coli
MKVVGVTSCIAGLAHTPMAAKALEKAGVKLGHDVKIEQQGAMGTIDEITPAEVSAADVVIIAADKVIDGEDRFKGKPVVRVKIGQCVANGEAVLSKVVAAIEARKQKEAN | not soluble
RKDFTKEEVNYLFHGVKTMGNHWNSILWSFPFQKGRRAVDLAHKYHRLI | soluble
MDLELEPTLESIVQHDSLKWIFVGGKGGVGKTTTSSSVAVQLALAQPNEQFLLISTDPAHNLSDAFCQKFGKDARKVEGLPNLSCMEIDPEAAMSDLQQQASQYNNDPNDPLKSMMSDMTGSIPGIDEALSFMEVLKHIKNQKVLEGEDNSNAISYKTIIFDTAPTGHTLRFLQLPSTLEKLLSKFKDLSGKLGPMLSMMGGGQQQDIFEKLNEVQKNVSEVNEQFTNPELTTFICVCISEFLSLYETERMIQELMSYNMDVNSIVVNQLLFAEGDDHSCKRCESRWKMQKKYLDQMGELYEDYHLVKMPLLGCEIRGVENLKKFSKFLLKPYDPKADSDIVFDLEEK | soluble
MSLEDIWHKADELCEKNIKIVIRNLGLNLTISFQCYSHLLQNIPSMLGSIPFQRILSERKNKFDNAIVVSAGPSLTKQLPLLKAYQDKAVVFCADGALSMLEKEGVVPDYVLNIDFEDLPLRFFKNKQNKLSLNILSCATHPSLVHFLDNKSVILRDDPLYQSFNLNDFGYIDTGTHVSHFSYTLALALGFKNIIMIGQDLAFDEEGNSHSKGFDFGEKFEEEHKKYKLKTQAYGGKGEVLTHITWNDYRVKLEYLFACNDQKAKFYNATEGGARINFTEELSFKECCEKLLTKEKPKFELPKSLTKNRSDKLLAKFKEKIQKDQENAKRFLDDEGHHHHHH | soluble
MSLEGRSRLWPKTSAPGAFSRRSPERSWPSRRVQRHFPAKEGREAASAAALRASRRSMVGLTVAVRTGPCDLATRKTKSRWATGSDMTKSSKATSLEILACDAGWRNYHFVKLTTDDGIVGWSEFDEGFGSPGVGAAIQRLSTRIIGQNIFQHERIYAELFAATRPAAGGVVAQALGAIENAMLDAKAKCLGVPCYELLGGKIRDRVRVYWSHCATWRINHPSWYKPPIESLDGVKAMGREVREKKFTALKTNIFSYDDGKPTGWRPGFGSPFAPEINVDRKILRDLRMHLEAIRDGAGPDVDILLDCNFNAKTEGYLKILRTIADLDMFWIEIDSFNPEALGYIRRQSPHPISSCETLLGLREFLPYFHEQAMDVAIIDTPWNGVWQSMKIASAAEAFEVNVAPHNFYGHLCSMMNAHFCAAVPNLRIMEIDIDRLSWDRELFTHEPEIEDGHLIIPDRPGWGTEPNEEALRAHPPKTNGGLLNYGRKSEGHHHHHH | not soluble
MREWKIIDSTLREGEQFEKANFSTQDKVEIAKALDEFGIEYIEVTTPVASPQSRKDAEVLASLGLKAKVVTHIQCRLDAAKVAVETGVQGIDLLFGTSKYLRAPHGRDIPRIIEEAKEVIAYIREAAPHVEVRFSAEDTFRSEEQDLLAVYEAVAPYVDRVGLADTVGVATPRQVYALVREVRRVVGPRVDIEFHGHNDTGCAIANAYEAIEAGATHVDTTILGIGERNGITPLGGFLARMYTLQPEYVRRKYKLEMLPELDRMVARMVGVEIPFNNYITGETAFSHKAGMHLKAIYINPEAYEPYPPEVFGVKRKLIIASRLTGRHAIKARAEELGLHYGEEELHRVTQHIKALADRGQLTLEELDRILREWITAHHHHHH | soluble
MSLDFREVIEQRYHQLLSRYIAELTETSLYQAQKFSRKTIEHQIPPEEIISIHRKVLKELYPSLPEDVFHSLDFLIEVMIGYGMAYQEHQTLRGIQQEIKSEIEIAANVQQTLLGTKVPQEEALDIGAISVPAKQMSGDYYHFVKDKESINIAIADVIGKGIPAALCMSMIKYAMDSLPETGIHPSQVLKNLNRVVEQNVDASMFITMFYANYNMDKHQFTYASAGHEPGFYYSQKDNTFYDLEAKGLVLGISQDYDYKQFDQHLEKGDMIVLFSDGVTECRTENGFLERPDLQKLIEEHMCSSAQEMVKNIYDSLLKLQDFQLHDDFTLIVLRRKVEGGSHHHHHH | soluble
VYSDPLREAIAEAEQLVAAAPHIETEADLLEGLQYLAGCIAGCMHLAFDYERDHPFLQSGTGPFTKMGLDNPDTLYFGTRLQANRDYVVSGRRGTTTDLSFQLLGGEYTDYNVPASQAAFDDRELDIAADGSFEWRLRPSAPGQLVIREVYGDWSQQRGTLAIARLDTVGTAPPPLTRELMEKRYATAGSQLVNRVKTWLQFPQWFYLNIPVNTMVAPRLTPGGLATQYSSAGHFELRPGQALVITVPVSDAPYLGFQLGSMWYISLDYINHQTSLNASQAQADPDGKVRIVVAEQNPGVTNWVETLGHRRGFLQFRWQRVSRELTEADGPTVELVDFDAIPAALPHYQHNKISEDDWRARIALRQRQIATRMLG | not soluble
MAHHHHHHMQTLDINNSFAVPFDEDPQDAGVWFFDTNYAQEMFAMHKRVLPKVKVVGWYSSGPTIQPNDMLLHLLVADRFCLNPVYCVVNTDPNNKGVPVRAYTTVQGREGTRSLEFRNIPTHLGAEEAEEIGIEHLLRDLTDSTITTLSTQVQERELSLVHLCKVLQQIEEYLKDVGNAVMPISEDVLEVLQELISLQPEIYARRSSTEMIRHTNDEAIATFLAAIARCIGALHGVIMNRRKLARELQEIKDRRARAAETRLENEKMKIEEAAKEKDTNQA | soluble
MSHENQENYDDYNGDHDNKYDQQYDESSRGDDFGGRGRGFNGPPGGAGSFFGVPPAARGRGGPGMAPPGFAGRGRGFATPGMSSGFAPRGRGMPPGRGGYMPPYRGGYGVAPNGGPGAYGGPYNGGPGAYGAQAPGPNPQDQEQRLKRLSGCEEGQELWVETETAEGKKYFYHPVNRNTIWERPQNAKIVTQPELAQLIHRATEEEKNREERMPHGQIPQNPDDAWNEFNAPDGRKYYFNSITQENTWEKPKALIDQENGGGASPEPVQSAAIAEAQAKAQAALAAFMAQQKTSSNGGGGMPLSKAQASGAAAAAAVNAEAAKKKDSTRPISSTPVSGTPWCVVWTGDDKVFFYNPSTKCSVWERPPDTYGREDVDKLVQNPPSPKAEEENNQSKKESESESESDEDGPPKAKKSRAEKKKEALIAAQKKEKERPRQMLQKPVDPAIEAEMQAAKEREKVPLEERLKQFKEMLEEKNVSTSSTFEKELSKIVFDKRYLSLGATERRACFDAFCREKIESEKAERRKRVKEAKEEFQKLLAECELNGRSSYSSFTSKFGKDPRYKAVERNRDREDAFNDFVGELHKKEKDEKRAKKEKLKAAFVKLLEEQTGLTRKSKWSTTKKTLEDEERYIALDSSSTRESLFREFVANLGDETASDIEEEQEREKRLAAQTAIANRQKEVEAELGNQLRERTKESEKQKMGEHEDTYRNLLIDLIKSTENSWHEARRILRKDERYANCDMLDKTRKESLFDDHIKSLERKRREAFFQVLDNHEKITPMMRWRDAKKIIQDEEETFVKIASNSERKVERDFRDWQERRHDHLTDEFKEMLSETKIITHKSKKLMEEGEQHMDILSVLENDKRWVRMTAMSASERDRMLEDHIENLGRKGTPPPPTQQERDRRKQ | soluble
MGSDKIHHHHHHMKTDFTIREAQQTDTIALKELFQNTVLAVNSKDYSQAEVEDWASCGDDLSNIEEMIKTHYFIVAVNQQSQIVGFSSITSQGYLHSMFVHKDFQGKGIATMLLEEIERYAITAGIMRITSEVSLTARPFFEKKGYIVKEEQKRKANQLSLTNFWMAREMAKIKPYNGRIPACGVFCGGCPIYTREKRACRGAELNHSRCEKCKTFHLCCFGKKITHCFQCSNFPCTRFKGFAKRWQKHGQDFIENQKLLSEIGEVAFLEYYNKKVTD | not soluble
MEKSVNVIGAGLAGSEAAWQLVKRGVKVDLYEMRPVKQTPAHHTDKFAELVCTNSLRANGLTNAVGVIKEEMRLLDSIIIESADKASVPAGGALAVDRHEFSGYITDKVKNHPLVTIHTEEVTSIPEGPTIIATGPLTSPALAEEIKRLTGEEYLYFYDAAAPIIEKDSIDMDKVYLKSRYDKGEAAYLNCPMSEEEFNTFYEALVTAETAALKEFEKEVFFEGCMPIEVMAKRGIKTMLFGPLKPVGLEDPKTGKRPYAVLQLRQDDAAGTLYNMVGFQTHLKWGEQKRVFGLIPGLENAEIVRYGVMHRNTFINSPTVLEPTYQLKTRNDLFFAGQMTGVEGYVESAASGLAAGINAANFVQDKEPIVFPPESAIGSLANYITSASKKSFQPMNVNFGLFPELPTKIRAKQERNEKLAERALDAIKKVAEQLLEHHHHHH | soluble
MSNVTPKLVWPEDDYVDESLLEDHQGPARLEYDALVMLANLPPLTEEIMSRCPALPVKTRSTPEYTLVLDLDETLVHCSLTPLDNATMVFPVVFQNITYQVYVRLRPHLRTFLSRMAKTFEIIIFTASKKVYANKLCDILDPRKNHIRHRLFREHCVCVFGNYVKDLTILGRDPSKTMILDNAVQSFAYQLDNGIPIESWFHDRNDTELLKLCSFLEAIPTLGRDVREILRHKYRLRDHIPFYSIIHQQEGPGRLPLLEVAPPPVTEPNDEQLITQVVQKHPQLVQG | soluble
MKIRESTGKTSSLREVPGQEPRRVADSSGSSFKRHLKEFDHRNHEERIRALVSQIEEQGRKLSQKIDVAELKVYKRLISDFLDEVLHHSHIFSKDSHLDRRGRYKVYATVKKINEELDELTKEVLNAEKDNIRILQRIEDIRGLVLDLML | soluble
MSLFFTFMRGVVRVILFVINGNAHYENKEKLPKDQNYVLVAPHRTWWEPLYLAVAGSPKKFSFMAKKELFKNPVLRFILKHANAFPVDREKPGPSAIKTPVKILKNSDLSLIMFPSGTRHSSELKGGVALIAKMGRVPIVPSVYQGPLTLKELFKRKKVTVRFGEPIDISDIKKMDKDGLAEVERRMQEAFDQLDKEIDPTFKYESTEEGHHHHHH | soluble
MMDFSHIVSEDKIKRAIKDGDFQNLPGMGKPLPKMTRHTCRNRCAWAIVFLEHHHHHH | not soluble
MTVSNNGMAMPSVPPKIDCSEAIQDSPKFRATVAQHAMYFNRLENRLNEMLRHITAMIDFSKNYTNTFYKLTVSVNQLCDESFSGNPLASTTFQGLSEAYAHTVNLFRTYFDHSNVVTFTKLSNFIKIELTKVAESRAHFENMSQSMDDALVKNASISRQKPADATEGRNALTAVGTCFAHTTLDYVANINIAHAHKDHMILDALWTLVRESSAFFSKGHATFDEWTAADNGAIADTIQTFAAKSKLIERKMQDVHSLVPKEMFQHPSGMPIEPDVMMEGYLYKRSSNAFKTWNRRWFQIKDKQLLYSHRSTDLEPATIMEENLRICLVRPAPSNIDRIGCFELVTPTRIHLLQADSESLCQDWMRALQRTILALHEGDSVDVASTSPRNKTTSMSSGVTLTSANAISPLSNAMDVTKGRSVSDPASTYTSANTSSISTAAGFSSSTTAFEQVRRVPGNEVCADCGSPAPKWVSINLGVVLCIECSGAHRSLGVQTSKVRSLCMDSIDNELRDVLLALGNRQVNEIFLAHLPPADSIVPPQINEKSARPAREAWIKAKYVERRFAVAEDTRARSSATNRQEHLKHKTSIGGNSSSNGVNRSSSYADVQDAESGGLLDADPWSADLSVPVPTASKRLSACGSDTNLDAIGSSSIDTKTVEWDSVKEACECGDLLALMTAYAQGFDLNALHNGTTALHIATRNGQTAAVEFLLLNGAKINMLDEKLNTPLHLAAKEGHTLPVCQLLKRGADSNLANVDSKTPLDIAMECTHADIVTLFRVTIMRNDFNADFNNPMDETVEAVISDIARRAATEKEQKKTESLKSTSDI | not soluble
HMAKATTIKDAIRIFEERKSVVATEAEKVELHGMIPPIEKMDATLSTLKACKHLALSTNNIEKISSLSGMENLRILSLGRNLIKKIENLDAVADTLEELWISYNQIASLSGIEKLVNLRVLYMSNNKITNWGEIDKLAALDKLEDLLLAGNPLYNDYKENNATSEYRIEVVKRLPNLKKLDGMPVDVDEREQANVARGG | soluble

Source: the DeepSol protein solubility set
